Values quoted from earlier work, collected in publication PMC5342242.
Where two headings read alike, the source gives them in different places.

Experiments:
[1] = biological target: DNA polymerase III α subunit 1-280 (Escherichia coli) (UniProt P10443); assay: tryptophan fluorescence
[2] = biological target: DNA polymerase III α subunit 917-1160 (Escherichia coli) (UniProt P10443); assay: tryptophan fluorescence
[3] = biological target: DNA polymerase III α subunit (Escherichia coli) (UniProt P10443); assay: tryptophan fluorescence
Sequence of DNA polymerase III α subunit (Escherichia coli) (P10443 whole entry): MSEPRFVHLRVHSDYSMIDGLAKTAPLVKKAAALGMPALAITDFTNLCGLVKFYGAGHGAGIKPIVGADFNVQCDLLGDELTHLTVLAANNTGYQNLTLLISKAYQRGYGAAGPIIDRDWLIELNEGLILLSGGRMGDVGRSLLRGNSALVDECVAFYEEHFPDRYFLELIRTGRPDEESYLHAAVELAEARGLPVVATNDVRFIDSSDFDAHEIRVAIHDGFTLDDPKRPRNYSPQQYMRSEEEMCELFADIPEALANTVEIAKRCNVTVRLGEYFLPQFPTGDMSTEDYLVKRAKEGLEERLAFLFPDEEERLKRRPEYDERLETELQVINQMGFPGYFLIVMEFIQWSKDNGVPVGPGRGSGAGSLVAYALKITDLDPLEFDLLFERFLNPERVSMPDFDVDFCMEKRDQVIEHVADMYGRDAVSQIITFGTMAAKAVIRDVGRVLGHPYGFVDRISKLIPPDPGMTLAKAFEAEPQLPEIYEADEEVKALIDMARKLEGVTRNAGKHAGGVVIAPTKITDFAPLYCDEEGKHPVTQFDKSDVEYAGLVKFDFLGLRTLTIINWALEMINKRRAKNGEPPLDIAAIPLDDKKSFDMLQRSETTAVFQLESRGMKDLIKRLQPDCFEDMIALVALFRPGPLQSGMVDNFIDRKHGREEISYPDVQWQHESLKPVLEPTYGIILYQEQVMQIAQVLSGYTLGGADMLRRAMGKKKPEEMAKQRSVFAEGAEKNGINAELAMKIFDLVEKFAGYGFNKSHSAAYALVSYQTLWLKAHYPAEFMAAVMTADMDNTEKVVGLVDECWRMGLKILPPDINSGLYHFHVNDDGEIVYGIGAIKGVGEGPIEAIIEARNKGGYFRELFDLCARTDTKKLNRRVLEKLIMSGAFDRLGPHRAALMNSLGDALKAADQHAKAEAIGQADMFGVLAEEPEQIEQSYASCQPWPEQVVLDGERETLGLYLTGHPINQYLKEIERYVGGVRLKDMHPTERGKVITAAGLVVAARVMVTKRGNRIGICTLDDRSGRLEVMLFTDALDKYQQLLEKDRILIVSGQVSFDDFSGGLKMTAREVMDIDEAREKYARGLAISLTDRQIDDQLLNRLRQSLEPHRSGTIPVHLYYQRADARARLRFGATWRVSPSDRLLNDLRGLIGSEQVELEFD

[4] = biological target: DNA pol III alpha 917-1160 (Escherichia coli) (UniProt P10443)
Sequence of DNA pol III alpha 917-1160 (Escherichia coli) (P10443 917-1160): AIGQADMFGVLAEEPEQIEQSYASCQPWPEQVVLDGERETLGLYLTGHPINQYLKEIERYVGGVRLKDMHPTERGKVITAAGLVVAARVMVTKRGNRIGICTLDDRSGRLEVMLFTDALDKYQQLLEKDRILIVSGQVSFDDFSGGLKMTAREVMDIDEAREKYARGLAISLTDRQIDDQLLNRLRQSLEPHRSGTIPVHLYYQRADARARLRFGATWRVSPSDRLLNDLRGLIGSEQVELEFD

[5] = biological target: DNA pol III alpha 917-1160 (Escherichia coli) (UniProt P10443); remark: listed apart in the source
[6] = biological target: DNA pol III alpha 1-280 (Escherichia coli) (UniProt P10443)
Sequence of DNA pol III alpha 1-280 (Escherichia coli) (P10443 1-280): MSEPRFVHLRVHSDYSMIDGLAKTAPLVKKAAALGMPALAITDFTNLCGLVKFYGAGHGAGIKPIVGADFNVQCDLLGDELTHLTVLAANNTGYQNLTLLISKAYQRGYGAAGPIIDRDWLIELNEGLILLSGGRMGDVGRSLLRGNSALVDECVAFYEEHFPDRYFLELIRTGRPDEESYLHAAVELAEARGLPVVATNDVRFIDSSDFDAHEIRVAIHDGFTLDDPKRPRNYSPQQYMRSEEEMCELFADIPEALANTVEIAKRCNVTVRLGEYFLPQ

[7] = biological target: DNA pol III alpha (Escherichia coli) (UniProt P10443)
Sequence of DNA pol III alpha (Escherichia coli) (P10443 whole entry): as the sequence (P10443 whole entry) above

Sequence of UmuD' (P0AG11 25-139): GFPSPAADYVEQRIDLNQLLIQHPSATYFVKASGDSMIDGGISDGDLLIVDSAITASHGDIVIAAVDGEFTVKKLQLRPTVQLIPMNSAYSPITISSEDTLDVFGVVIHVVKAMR
Sequence of UmuD (P0AG11 25-139): as above
Sequence of DNA polymerase III α subunit 1-280 (Escherichia coli) (P10443 1-280): as the sequence (P10443 1-280) above
Sequence of DNA polymerase III α subunit 917-1160 (Escherichia coli) (P10443 917-1160): as the sequence (P10443 917-1160) above

Kd [1] [µM] | Kd [2] [µM] | Kd [3] [µM] | Kd [4] [µM] | Kd [5] [µM] | Kd [6] [µM] | Kd [7] [µM] | Substance
7.3 | 13.9 | 1.1 | 0.7 |  |  |  | UmuD (from UniProt P0AG11)
9.3 | 3.4 | 8.7 |  |  |  |  | UmuD 3A (from UniProt P0AG11)
10.3 | 0.7 | 10.6 |  |  |  |  | UmuD S60A (from UniProt P0AG11)
 |  |  |  | 3.8 | 8.6 | 10.9 | UmuD' (from UniProt P0AG11)
